US20230357348A1 (AstraZeneca / MedImmune, published 2023)
Starred links: 1 amine or outer side, 2 acyl side, 3 side chain; linkers in the order of their positions; H or OH if unused. Non-standard residues stand in square brackets, D forms with d. Groups on a side chain read outwards from the residue. No end group written: not given here. *: point of attachment. C20 diacid = O=C(O)CCCCCCCCCCCCCCCCCCC(=O)*; C18 diacid = O=C(O)CCCCCCCCCCCCCCCCC(=O)*; γGlu = O=C(O)[C@H](CCC(=O)[*:2])N[*:1]; αMeF = C[C@](N)(Cc1ccccc1)C(=O)O; AEEA = NCCOCCOCC(=O)O; Aib = CC(C)(N)C(=O)O

B1: Peptide 486 (peptide)
peptide: H[Aib]QGTFTSDVSK[αMeF]LDLK([AEEA-AEEA-γGlu-C20 diacid])RAQDFVRWLL[Aib]E-OH
modifications: N-terminus assumed
SMILES: CC(C)C[C@H](NC(=O)[C@H](CC(=O)O)NC(=O)[C@H](CC(C)C)NC(=O)[C@](C)(Cc1ccccc1)NC(=O)[C@H](CCCCN)NC(=O)[C@H](CO)NC(=O)[C@@H](NC(=O)[C@H](CC(=O)O)NC(=O)[C@H](CO)NC(=O)[C@@H](NC(=O)[C@H](Cc1ccccc1)NC(=O)[C@@H](NC(=O)CNC(=O)[C@H](CCC(N)=O)NC(=O)C(C)(C)NC(=O)[C@@H](N)Cc1c[nH]cn1)[C@@H](C)O)[C@@H](C)O)C(C)C)C(=O)N[C@@H](CCCCNC(=O)COCCOCCNC(=O)COCCOCCNC(=O)CC[C@H](NC(=O)CCCCCCCCCCCCCCCCCCC(=O)O)C(=O)O)C(=O)N[C@@H](CCCNC(=N)N)C(=O)N[C@@H](C)C(=O)N[C@@H](CCC(N)=O)C(=O)N[C@@H](CC(=O)O)C(=O)N[C@@H](Cc1ccccc1)C(=O)N[C@H](C(=O)N[C@@H](CCCNC(=N)N)C(=O)N[C@@H](Cc1c[nH]c2ccccc12)C(=O)N[C@@H](CC(C)C)C(=O)N[C@@H](CC(C)C)C(=O)NC(C)(C)C(=O)N[C@@H](CCC(=O)O)C(=O)O)C(C)C
B2: Peptide 490 (peptide)
peptide: H[Aib]QGTFTSDVSK[αMeF]LDTK([AEEA-AEEA-γGlu-C20 diacid])RARDFVQWLL[Aib]TE-NH2
modifications: N-terminus assumed
SMILES: CC(C)C[C@H](NC(=O)[C@H](Cc1c[nH]c2ccccc12)NC(=O)[C@H](CCC(N)=O)NC(=O)[C@@H](NC(=O)[C@H](Cc1ccccc1)NC(=O)[C@H](CC(=O)O)NC(=O)[C@H](CCCNC(=N)N)NC(=O)[C@H](C)NC(=O)[C@H](CCCNC(=N)N)NC(=O)[C@H](CCCCNC(=O)COCCOCCNC(=O)COCCOCCNC(=O)CC[C@H](NC(=O)CCCCCCCCCCCCCCCCCCC(=O)O)C(=O)O)NC(=O)[C@@H](NC(=O)[C@H](CC(=O)O)NC(=O)[C@H](CC(C)C)NC(=O)[C@](C)(Cc1ccccc1)NC(=O)[C@H](CCCCN)NC(=O)[C@H](CO)NC(=O)[C@@H](NC(=O)[C@H](CC(=O)O)NC(=O)[C@H](CO)NC(=O)[C@@H](NC(=O)[C@H](Cc1ccccc1)NC(=O)[C@@H](NC(=O)CNC(=O)[C@H](CCC(N)=O)NC(=O)C(C)(C)NC(=O)[C@@H](N)Cc1c[nH]cn1)[C@@H](C)O)[C@@H](C)O)C(C)C)[C@@H](C)O)C(C)C)C(=O)N[C@@H](CC(C)C)C(=O)NC(C)(C)C(=O)N[C@H](C(=O)N[C@@H](CCC(=O)O)C(N)=O)[C@@H](C)O
B3: Peptide 488 (peptide)
peptide: H[Aib]QGTFTSDVSK[αMeF]LDTK([AEEA-AEEA-γGlu-C20 diacid])RARDFVQWLL[Aib]TE-OH
modifications: N-terminus assumed
SMILES: CC(C)C[C@H](NC(=O)[C@H](Cc1c[nH]c2ccccc12)NC(=O)[C@H](CCC(N)=O)NC(=O)[C@@H](NC(=O)[C@H](Cc1ccccc1)NC(=O)[C@H](CC(=O)O)NC(=O)[C@H](CCCNC(=N)N)NC(=O)[C@H](C)NC(=O)[C@H](CCCNC(=N)N)NC(=O)[C@H](CCCCNC(=O)COCCOCCNC(=O)COCCOCCNC(=O)CC[C@H](NC(=O)CCCCCCCCCCCCCCCCCCC(=O)O)C(=O)O)NC(=O)[C@@H](NC(=O)[C@H](CC(=O)O)NC(=O)[C@H](CC(C)C)NC(=O)[C@](C)(Cc1ccccc1)NC(=O)[C@H](CCCCN)NC(=O)[C@H](CO)NC(=O)[C@@H](NC(=O)[C@H](CC(=O)O)NC(=O)[C@H](CO)NC(=O)[C@@H](NC(=O)[C@H](Cc1ccccc1)NC(=O)[C@@H](NC(=O)CNC(=O)[C@H](CCC(N)=O)NC(=O)C(C)(C)NC(=O)[C@@H](N)Cc1c[nH]cn1)[C@@H](C)O)[C@@H](C)O)C(C)C)[C@@H](C)O)C(C)C)C(=O)N[C@@H](CC(C)C)C(=O)NC(C)(C)C(=O)N[C@H](C(=O)N[C@@H](CCC(=O)O)C(=O)O)[C@@H](C)O
B4: Peptide 491 (peptide)
peptide: H[Aib]QGTFTSDVSK[αMeF]LDTK([AEEA-AEEA-γGlu-C18 diacid])RARDFVRWLL[Aib]TE-OH
modifications: N-terminus assumed
SMILES: CC(C)C[C@H](NC(=O)[C@H](Cc1c[nH]c2ccccc12)NC(=O)[C@H](CCCNC(=N)N)NC(=O)[C@@H](NC(=O)[C@H](Cc1ccccc1)NC(=O)[C@H](CC(=O)O)NC(=O)[C@H](CCCNC(=N)N)NC(=O)[C@H](C)NC(=O)[C@H](CCCNC(=N)N)NC(=O)[C@H](CCCCNC(=O)COCCOCCNC(=O)COCCOCCNC(=O)CC[C@H](NC(=O)CCCCCCCCCCCCCCCCC(=O)O)C(=O)O)NC(=O)[C@@H](NC(=O)[C@H](CC(=O)O)NC(=O)[C@H](CC(C)C)NC(=O)[C@](C)(Cc1ccccc1)NC(=O)[C@H](CCCCN)NC(=O)[C@H](CO)NC(=O)[C@@H](NC(=O)[C@H](CC(=O)O)NC(=O)[C@H](CO)NC(=O)[C@@H](NC(=O)[C@H](Cc1ccccc1)NC(=O)[C@@H](NC(=O)CNC(=O)[C@H](CCC(N)=O)NC(=O)C(C)(C)NC(=O)[C@@H](N)Cc1c[nH]cn1)[C@@H](C)O)[C@@H](C)O)C(C)C)[C@@H](C)O)C(C)C)C(=O)N[C@@H](CC(C)C)C(=O)NC(C)(C)C(=O)N[C@H](C(=O)N[C@@H](CCC(=O)O)C(=O)O)[C@@H](C)O
B5: Peptide 485 (peptide)
peptide: H[Aib]QGTFTSDVSK[αMeF]LDTK([AEEA-AEEA-γGlu-C20 diacid])RAQDFVQWLL[Aib]E-NH2
modifications: N-terminus assumed
SMILES: CC(C)C[C@H](NC(=O)[C@H](Cc1c[nH]c2ccccc12)NC(=O)[C@H](CCC(N)=O)NC(=O)[C@@H](NC(=O)[C@H](Cc1ccccc1)NC(=O)[C@H](CC(=O)O)NC(=O)[C@H](CCC(N)=O)NC(=O)[C@H](C)NC(=O)[C@H](CCCNC(=N)N)NC(=O)[C@H](CCCCNC(=O)COCCOCCNC(=O)COCCOCCNC(=O)CC[C@H](NC(=O)CCCCCCCCCCCCCCCCCCC(=O)O)C(=O)O)NC(=O)[C@@H](NC(=O)[C@H](CC(=O)O)NC(=O)[C@H](CC(C)C)NC(=O)[C@](C)(Cc1ccccc1)NC(=O)[C@H](CCCCN)NC(=O)[C@H](CO)NC(=O)[C@@H](NC(=O)[C@H](CC(=O)O)NC(=O)[C@H](CO)NC(=O)[C@@H](NC(=O)[C@H](Cc1ccccc1)NC(=O)[C@@H](NC(=O)CNC(=O)[C@H](CCC(N)=O)NC(=O)C(C)(C)NC(=O)[C@@H](N)Cc1c[nH]cn1)[C@@H](C)O)[C@@H](C)O)C(C)C)[C@@H](C)O)C(C)C)C(=O)N[C@@H](CC(C)C)C(=O)NC(C)(C)C(=O)N[C@@H](CCC(=O)O)C(N)=O
B6: Peptide 487 (peptide)
peptide: H[Aib]QGTFTSDVSK[αMeF]LDTK([AEEA-AEEA-γGlu-C18 diacid])RARDFVQWLL[Aib]TE-OH
modifications: N-terminus assumed
SMILES: CC(C)C[C@H](NC(=O)[C@H](Cc1c[nH]c2ccccc12)NC(=O)[C@H](CCC(N)=O)NC(=O)[C@@H](NC(=O)[C@H](Cc1ccccc1)NC(=O)[C@H](CC(=O)O)NC(=O)[C@H](CCCNC(=N)N)NC(=O)[C@H](C)NC(=O)[C@H](CCCNC(=N)N)NC(=O)[C@H](CCCCNC(=O)COCCOCCNC(=O)COCCOCCNC(=O)CC[C@H](NC(=O)CCCCCCCCCCCCCCCCC(=O)O)C(=O)O)NC(=O)[C@@H](NC(=O)[C@H](CC(=O)O)NC(=O)[C@H](CC(C)C)NC(=O)[C@](C)(Cc1ccccc1)NC(=O)[C@H](CCCCN)NC(=O)[C@H](CO)NC(=O)[C@@H](NC(=O)[C@H](CC(=O)O)NC(=O)[C@H](CO)NC(=O)[C@@H](NC(=O)[C@H](Cc1ccccc1)NC(=O)[C@@H](NC(=O)CNC(=O)[C@H](CCC(N)=O)NC(=O)C(C)(C)NC(=O)[C@@H](N)Cc1c[nH]cn1)[C@@H](C)O)[C@@H](C)O)C(C)C)[C@@H](C)O)C(C)C)C(=O)N[C@@H](CC(C)C)C(=O)NC(C)(C)C(=O)N[C@H](C(=O)N[C@@H](CCC(=O)O)C(=O)O)[C@@H](C)O
B7: Peptide 489 (peptide)
peptide: H[Aib]QGTFTSDVSK[αMeF]LDTK([AEEA-AEEA-γGlu-C18 diacid])RARDFVQWLL[Aib]TE-NH2
modifications: N-terminus assumed
SMILES: CC(C)C[C@H](NC(=O)[C@H](Cc1c[nH]c2ccccc12)NC(=O)[C@H](CCC(N)=O)NC(=O)[C@@H](NC(=O)[C@H](Cc1ccccc1)NC(=O)[C@H](CC(=O)O)NC(=O)[C@H](CCCNC(=N)N)NC(=O)[C@H](C)NC(=O)[C@H](CCCNC(=N)N)NC(=O)[C@H](CCCCNC(=O)COCCOCCNC(=O)COCCOCCNC(=O)CC[C@H](NC(=O)CCCCCCCCCCCCCCCCC(=O)O)C(=O)O)NC(=O)[C@@H](NC(=O)[C@H](CC(=O)O)NC(=O)[C@H](CC(C)C)NC(=O)[C@](C)(Cc1ccccc1)NC(=O)[C@H](CCCCN)NC(=O)[C@H](CO)NC(=O)[C@@H](NC(=O)[C@H](CC(=O)O)NC(=O)[C@H](CO)NC(=O)[C@@H](NC(=O)[C@H](Cc1ccccc1)NC(=O)[C@@H](NC(=O)CNC(=O)[C@H](CCC(N)=O)NC(=O)C(C)(C)NC(=O)[C@@H](N)Cc1c[nH]cn1)[C@@H](C)O)[C@@H](C)O)C(C)C)[C@@H](C)O)C(C)C)C(=O)N[C@@H](CC(C)C)C(=O)NC(C)(C)C(=O)N[C@H](C(=O)N[C@@H](CCC(=O)O)C(N)=O)[C@@H](C)O

What follows are binders tested against human glucagon receptor (hGCGR) (human, UniProt P47871 26-477) (assay: cell-based or functional assay).
human glucagon receptor (hGCGR), sequence (P47871 26-477): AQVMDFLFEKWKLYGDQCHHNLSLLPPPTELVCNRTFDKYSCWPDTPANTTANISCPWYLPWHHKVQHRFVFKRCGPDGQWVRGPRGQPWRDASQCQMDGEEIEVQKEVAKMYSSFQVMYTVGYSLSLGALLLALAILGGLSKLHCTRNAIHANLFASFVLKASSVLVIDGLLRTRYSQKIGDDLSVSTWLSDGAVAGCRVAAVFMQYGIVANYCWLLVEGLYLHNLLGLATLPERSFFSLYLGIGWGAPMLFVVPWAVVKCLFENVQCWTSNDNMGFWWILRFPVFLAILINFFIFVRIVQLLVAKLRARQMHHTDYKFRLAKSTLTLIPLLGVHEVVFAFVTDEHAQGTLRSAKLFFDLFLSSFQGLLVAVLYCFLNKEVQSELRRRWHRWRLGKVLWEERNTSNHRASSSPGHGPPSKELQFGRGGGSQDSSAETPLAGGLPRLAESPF

hGluc-R EC50 (pM) | Binder
166 | B1
396 | B2
301 | B3
232 | B4
90.4 | B5
164 | B6
168 | B7

What follows are binders tested against human GLP-1 receptor (hGLP-1R) (human, UniProt P43220 24-463) (assay: cell-based or functional assay).

hGLP-1R EC50 (pM) | Binder
420 | B1
69 | B2
202 | B3
73.6 | B4
219 | B5
65.5 | B6
22.8 | B7
